# Patent publication US20250152746A1, “BASE EDITING OF ANGPTL3 AND METHODS OF USING SAME FOR TREATMENT OF DISEASE” (Verve Therapeutics, Inc., priority 2020, published 2025)
# In the oligonucleotide strings, read from the 5' end, every base follows the letter of its sugar. An asterisk marks phosphorothioate; unmarked linkages are phosphodiester. Other units and linkages are bracketed, terminal groups are in braces. A string of capitals states the bases alone. m = 2'-O-methyl; r = 2'-OH (RNA)
# B1: GA212: PCSK9 gRNA; protospacer CGGGATGCCGGCGTGGCCAA (SEQ ID NO: 206) (nucleic acid)
# guide: CGGGAUGCCGGCGUGGCCAAGUUUUAGAGCUAGAAAUAGCAAGUUAAAAUAAGGCUAGUCCGUUAUCAACUUGAAAAAGUGGCACCGAGUCGGUGCUUUU
# modifications: sugars from the 5' end m3 r94 m3, linkages s3 o93 s3 (s phosphorothioate, o phosphodiester), T or U not given here
# B2: GA207: PCSK9 gRNA; protospacer GGAAATCGAGGGCAGGGTCA (SEQ ID NO: 201) (nucleic acid)
# guide: GGAAAUCGAGGGCAGGGUCAGUUUUAGAGCUAGAAAUAGCAAGUUAAAAUAAGGCUAGUCCGUUAUCAACUUGAAAAAGUGGCACCGAGUCGGUGCUUUU
# modifications: sugars from the 5' end m3 r94 m3, linkages s3 o93 s3 (s phosphorothioate, o phosphodiester), T or U not given here
# B3: GA208: PCSK9 gRNA; protospacer CCAGCATACAGAGTGACCAC (SEQ ID NO: 202) (nucleic acid)
# guide: CCAGCAUACAGAGUGACCACGUUUUAGAGCUAGAAAUAGCAAGUUAAAAUAAGGCUAGUCCGUUAUCAACUUGAAAAAGUGGCACCGAGUCGGUGCUUUU
# modifications: sugars from the 5' end m3 r94 m3, linkages s3 o93 s3 (s phosphorothioate, o phosphodiester), T or U not given here
# B4: GA211: PCSK9 gRNA; protospacer TGCGCGTGCTCAACTGCCAA (SEQ ID NO: 205) (nucleic acid)
# guide: UGCGCGUGCUCAACUGCCAAGUUUUAGAGCUAGAAAUAGCAAGUUAAAAUAAGGCUAGUCCGUUAUCAACUUGAAAAAGUGGCACCGAGUCGGUGCUUUU
# modifications: sugars from the 5' end m3 r94 m3, linkages s3 o93 s3 (s phosphorothioate, o phosphodiester), T or U not given here
# B5: GA214: PCSK9 gRNA; protospacer CCTTGGCCACGCCGGCATCC (SEQ ID NO: 208) (nucleic acid)
# guide: CCUUGGCCACGCCGGCAUCCGUUUUAGAGCUAGAAAUAGCAAGUUAAAAUAAGGCUAGUCCGUUAUCAACUUGAAAAAGUGGCACCGAGUCGGUGCUUUU
# modifications: sugars from the 5' end m3 r94 m3, linkages s3 o93 s3 (s phosphorothioate, o phosphodiester), T or U not given here
# B6: GA159: PCSK9 gRNA; protospacer GCGTTCCGAGGAGGACGGCC (SEQ ID NO: 153) (nucleic acid)
# guide: mG*mC*mG*rUrUrCrCrGrArGrGrArGrGrArCrGrGrCrCrGrUrUrUrUrArGrArGrCrUrArGrArArArUrArGrCrArArGrUrUrArArArArUrArArGrGrCrUrArGrUrCrCrGrUrUrArUrCrArArCrUrUrGrArArArArArGrUrGrGrCrArCrCrGrArGrUrCrGrGrUrGrCrU*mU*mU*mU
# B7: GA206: PCSK9 gRNA; protospacer CCGGTGGTCACTCTGTATGC (SEQ ID NO: 200) (nucleic acid)
# guide: CCGGUGGUCACUCUGUAUGCGUUUUAGAGCUAGAAAUAGCAAGUUAAAAUAAGGCUAGUCCGUUAUCAACUUGAAAAAGUGGCACCGAGUCGGUGCUUUU
# modifications: sugars from the 5' end m3 r94 m3, linkages s3 o93 s3 (s phosphorothioate, o phosphodiester), T or U not given here
# B8: GA218: PCSK9 gRNA; protospacer CGCTGACCACCCCTGCCAGG (SEQ ID NO: 212) (nucleic acid)
# guide: CGCUGACCACCCCUGCCAGGGUUUUAGAGCUAGAAAUAGCAAGUUAAAAUAAGGCUAGUCCGUUAUCAACUUGAAAAAGUGGCACCGAGUCGGUGCUUUU
# modifications: sugars from the 5' end m3 r94 m3, linkages s3 o93 s3 (s phosphorothioate, o phosphodiester), T or U not given here
# B9: GA210: PCSK9 gRNA; protospacer CTGCGCGTGCTCAACTGCCA (SEQ ID NO: 204) (nucleic acid)
# guide: CUGCGCGUGCUCAACUGCCAGUUUUAGAGCUAGAAAUAGCAAGUUAAAAUAAGGCUAGUCCGUUAUCAACUUGAAAAAGUGGCACCGAGUCGGUGCUUUU
# modifications: sugars from the 5' end m3 r94 m3, linkages s3 o93 s3 (s phosphorothioate, o phosphodiester), T or U not given here
# B10: GA213: PCSK9 gRNA; protospacer CGTGCTCAACTGCCAAGGGA (SEQ ID NO: 207) (nucleic acid)
# guide: CGUGCUCAACUGCCAAGGGAGUUUUAGAGCUAGAAAUAGCAAGUUAAAAUAAGGCUAGUCCGUUAUCAACUUGAAAAAGUGGCACCGAGUCGGUGCUUUU
# modifications: sugars from the 5' end m3 r94 m3, linkages s3 o93 s3 (s phosphorothioate, o phosphodiester), T or U not given here
# B11: GA209: PCSK9 gRNA; protospacer CTTGGCAGTTGAGCACGCGC (SEQ ID NO: 203) (nucleic acid)
# guide: CUUGGCAGUUGAGCACGCGCGUUUUAGAGCUAGAAAUAGCAAGUUAAAAUAAGGCUAGUCCGUUAUCAACUUGAAAAAGUGGCACCGAGUCGGUGCUUUU
# modifications: sugars from the 5' end m3 r94 m3, linkages s3 o93 s3 (s phosphorothioate, o phosphodiester), T or U not given here
# B12: GA216: PCSK9 gRNA; protospacer CCGGGATGCCGGCGTGGCCA (SEQ ID NO: 210) (nucleic acid)
# guide: CCGGGAUGCCGGCGUGGCCAGUUUUAGAGCUAGAAAUAGCAAGUUAAAAUAAGGCUAGUCCGUUAUCAACUUGAAAAAGUGGCACCGAGUCGGUGCUUUU
# modifications: sugars from the 5' end m3 r94 m3, linkages s3 o93 s3 (s phosphorothioate, o phosphodiester), T or U not given here
# B13: GA217: PCSK9 gRNA; protospacer GTGGTCAGCGGCCGGGATGC (SEQ ID NO: 211) (nucleic acid)
# guide: GUGGUCAGCGGCCGGGAUGCGUUUUAGAGCUAGAAAUAGCAAGUUAAAAUAAGGCUAGUCCGUUAUCAACUUGAAAAAGUGGCACCGAGUCGGUGCUUUU
# modifications: sugars from the 5' end m3 r94 m3, linkages s3 o93 s3 (s phosphorothioate, o phosphodiester), T or U not given here
# B14: GA215: PCSK9 gRNA; protospacer CAGCGGCCGGGATGCCGGCG (SEQ ID NO: 209) (nucleic acid)
# guide: CAGCGGCCGGGAUGCCGGCGGUUUUAGAGCUAGAAAUAGCAAGUUAAAAUAAGGCUAGUCCGUUAUCAACUUGAAAAAGUGGCACCGAGUCGGUGCUUUU
# modifications: sugars from the 5' end m3 r94 m3, linkages s3 o93 s3 (s phosphorothioate, o phosphodiester), T or U not given here
# System: PCSK9 gene
# Test: PCSK9 gRNA/SpCas9 editing in primary cynomolgus hepatocytes (Tables 2, 22)
# Format: cell-based, cynomolgus monkey
# Settings: 100 ng/RNA/mL; SpCas9 mRNA MS002 1:1 by weight
row,Molecule,Cyno Primary Hepatocyte Editing % 100 [%]
1,B1,1.96
2,B2,1.05
3,B3,1.15
4,B4,1.01
5,B5,3.06
6,B6,1.19
7,B7,0.84
8,B8,5.42
9,B9,4.5
10,B10,2.73
11,B11,3.59
12,B12,1.77
13,B13,2.6

# Same assay, conditions: 500 ng/RNA/mL; SpCas9 mRNA MS002 1:1 by weight
row,Molecule,Cyno Primary Hepatocyte Editing % 500 [%]
1,B1,16.53
2,B2,2.72
3,B3,6.01
4,B4,8.3
5,B5,14.84
6,B14,1.07
7,B6,3.69
8,B7,2.73
9,B8,19.95
10,B9,19.72
11,B10,16.35
12,B11,13.96
13,B12,4.97
14,B13,10.2

# Same assay, conditions: 2500 ng/RNA/mL; SpCas9 mRNA MS002 1:1 by weight
row,Molecule,Cyno Primary Hepatocyte Editing % 2500 [%]
1,B1,54.89
2,B2,19.16
3,B3,25.07
4,B4,28.63
5,B5,50.35
6,B14,7.52
7,B6,12.21
8,B7,16.9
9,B8,58.66
10,B9,54.88
11,B10,45.22
12,B11,40.78
13,B12,37.79
14,B13,39.21

# System: PCSK9 gene
# Test: PCSK9 gRNA/SpCas9 editing in primary human hepatocytes (Tables 2, 4)
# Format: cell-based
# Settings: 100 ng/RNA/mL; SpCas9 mRNA MS002 1:1 by weight
# Outline: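 Primary human hepatocytes co-transfected with PCSK9 gRNA plus SpCas9 mRNA (1:1 by weight) at 2500, 500 or 100 ng RNA/mL, or 2500–250 ng/mL for tracr-modified guides. Editing at the target site read by amplicon next-generation sequencing of extracted genomic DNA.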
row,Molecule,Human Primary Hepatocyte Editing % 100 [%]
1,B1,1.17
2,B2,0.84
3,B3,1.38
4,B4,1.31
5,B5,1.94
6,B14,0.13
7,B6,1.35
8,B7,0.85
9,B8,3.81
10,B9,0.04
11,B10,2.17
12,B11,0.02
13,B12,0.95
14,B13,0.77

# Same assay, conditions: 500 ng/RNA/mL; SpCas9 mRNA MS002 1:1 by weight
row,Molecule,Human Primary Hepatocyte Editing % 500 [%]
1,B1,5.59
2,B2,3.46
3,B3,5.72
4,B4,10.29
5,B5,6.28
6,B14,1.01
7,B6,3.74
8,B7,2.7
9,B8,8.96
10,B9,5.86
11,B10,8.77
12,B11,8.76
13,B12,3.7
14,B13,2.75

# Same assay, conditions: 2500 ng/RNA/mL; SpCas9 mRNA MS002 1:1 by weight
row,Molecule,Human Primary Hepatocyte Editing % 2500 [%]
1,B1,12.45
2,B2,20.79
3,B3,25.76
4,B4,38.07
5,B5,22.92
6,B14,4.94
7,B6,14.68
8,B7,20.73
9,B8,31.71
10,B9,14.3
11,B10,24.28
12,B11,33.23
13,B12,14.65
14,B13,15.31
